According to patent publication US20160311887A1 (CAMBRIDGE ENTERPRISE, published 2016):
Like-named read-outs stand apart in the source and are kept apart here.

How the values were obtained:
[1] = target: T1, activated Protein C (APC) (human, UniProt P04070 43-197; P04070 212-461); assay: ratio of rate constants, APC over thrombin
T1 construct: also called human plasma APC
Procedure: Standard errors are shown.
(§1) Preliminary second-order rate constants for the inhibition of thrombin and APC by random mutagenesis PCI variants were measured under pseudo first-order conditions using an excess of serpin over protease. Serpin and protease were incubated together for varying lengths of time and the residual activity determined by adding an excess of chromogenic substrate for the protease. Plots of residual protease activity over time gave the observed rate constant kobs. The second-order rate constant, k₂, is the slope of the plot of kobs versus serpin concentration (fitted using a linear regression model). WT and P2KP1′K are shown for comparison. The error shown is the standard error of the slope.

[2] = target: T1, activated Protein C (APC); assay: preliminary pseudo-first-order inhibition kinetics, residual chromogenic activity
Procedure: as §1

thrombin [3] = target: T2, thrombin (UniProt P00734 328-622); assay: as above
Procedure: as §1

[4] = target: T1, activated Protein C (APC); assay: pseudo-first-order inhibition kinetics, residual chromogenic activity
thrombin [5] = target: T2, thrombin; assay: as above
[6] = target: T1, activated Protein C (APC); assay: ratio of rate constants, APC over fXa
fXa = target: T3, fXa (UniProt P00742 41-179; P00742 235-488); assay: pseudo-first-order inhibition kinetics, residual chromogenic activity (S2222)
T3 construct: also called factor Xa

TF:fVIIa = TF:fVIIa (UniProt P13726 33-295; P08709 61-466, limits assumed); assay: cell-based or functional assay
[7] = target: T1, activated Protein C (APC); assay: ratio of rate constants, APC over thrombin; remark: listed apart in the source

Sequence of TF:fVIIa (P13726 33-295 limits assumed, chain 1 of 2): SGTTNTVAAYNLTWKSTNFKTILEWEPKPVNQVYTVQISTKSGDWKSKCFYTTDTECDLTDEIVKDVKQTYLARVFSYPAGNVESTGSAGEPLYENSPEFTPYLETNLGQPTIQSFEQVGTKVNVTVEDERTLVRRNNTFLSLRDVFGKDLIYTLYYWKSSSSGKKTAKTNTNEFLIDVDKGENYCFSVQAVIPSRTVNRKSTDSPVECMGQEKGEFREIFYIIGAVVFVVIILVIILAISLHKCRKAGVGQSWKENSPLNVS
Sequence of TF:fVIIa (P08709 61-466 limits assumed, chain 2 of 2): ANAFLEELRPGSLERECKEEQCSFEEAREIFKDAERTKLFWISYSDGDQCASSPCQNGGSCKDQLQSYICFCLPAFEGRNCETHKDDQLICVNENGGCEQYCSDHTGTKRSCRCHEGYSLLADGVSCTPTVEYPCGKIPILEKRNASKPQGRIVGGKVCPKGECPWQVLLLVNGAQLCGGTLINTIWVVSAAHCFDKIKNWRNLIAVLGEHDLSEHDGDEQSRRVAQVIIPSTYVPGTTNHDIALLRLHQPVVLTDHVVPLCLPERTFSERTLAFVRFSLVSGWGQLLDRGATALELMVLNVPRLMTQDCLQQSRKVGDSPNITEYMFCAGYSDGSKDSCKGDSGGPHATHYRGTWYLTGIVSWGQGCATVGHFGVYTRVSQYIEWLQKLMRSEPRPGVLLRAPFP
T1 sequence (P04070 43-197, chain 1 of 2): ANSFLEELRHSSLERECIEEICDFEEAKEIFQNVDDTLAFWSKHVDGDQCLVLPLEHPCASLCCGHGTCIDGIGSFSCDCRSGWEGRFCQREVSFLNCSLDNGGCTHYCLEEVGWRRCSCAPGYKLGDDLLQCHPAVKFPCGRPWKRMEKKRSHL
T1 sequence (P04070 212-461, chain 2 of 2): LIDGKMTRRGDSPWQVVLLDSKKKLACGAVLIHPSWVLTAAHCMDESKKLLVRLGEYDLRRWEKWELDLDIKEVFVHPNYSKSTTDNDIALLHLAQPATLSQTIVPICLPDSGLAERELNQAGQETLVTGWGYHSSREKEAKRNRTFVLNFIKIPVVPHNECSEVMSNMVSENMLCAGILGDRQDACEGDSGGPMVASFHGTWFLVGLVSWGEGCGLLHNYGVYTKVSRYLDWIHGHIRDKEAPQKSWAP
T3 sequence (P00742 41-179 limits assumed, form in doubt, chain 1 of 2): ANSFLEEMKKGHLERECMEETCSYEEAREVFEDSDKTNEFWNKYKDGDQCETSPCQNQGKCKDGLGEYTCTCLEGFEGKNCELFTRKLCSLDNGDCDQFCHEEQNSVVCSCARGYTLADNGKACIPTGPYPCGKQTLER
T3 sequence (P00742 235-488 limits assumed, form in doubt, chain 2 of 2): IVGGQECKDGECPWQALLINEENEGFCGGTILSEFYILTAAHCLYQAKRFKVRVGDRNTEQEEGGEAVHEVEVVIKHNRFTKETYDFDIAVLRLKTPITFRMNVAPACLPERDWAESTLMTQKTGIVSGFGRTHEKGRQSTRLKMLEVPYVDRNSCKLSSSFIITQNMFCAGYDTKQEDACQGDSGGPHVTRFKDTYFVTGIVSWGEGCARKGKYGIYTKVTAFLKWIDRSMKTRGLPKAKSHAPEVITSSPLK

Binder	inhibition of APC/thrombin [1] [fold]	second-order rate constant of inhibition [2] [M⁻¹ s⁻¹]	second-order rate constant of inhibition (thrombin [3]) [M⁻¹ s⁻¹]	second-order rate constant of inhibition [4] [M⁻¹ s⁻¹]	second-order rate constant of inhibition (thrombin [5]) [M⁻¹ s⁻¹]	inhibition of APC/fXa [6] [fold]	second-order rate constant of inhibition (fXa) [M⁻¹ s⁻¹]	PT (s), 5 µM serpin (TF:fVIIa) [s]	inhibition of APC/thrombin [7] [fold]
A22 2.B10 PCI (P4SP2LP1′K) (other, As A22 WT PCI) APSSRRDFTFDLYRALASAAPSQNIFFSPVSISMSLAMLSLGAGSSTKMQILEGLGLNLQKSSEKELHRGFQQLLQELNQPRDGFQLSLGNALFTDLVVDLQDTFVSAMKTLYLADTFPTNFRDSAGAMKQINDYVAKQTKGKIVDLLKNLDSNAVVIMVNYIFFKAKWETSFNHKGTQEQDFYVTSETVVRVPMMSREDQYHYLLDRNLSCRVVGVPYQGNATALFILPSEGKMQQVENGLSEKTLRKWLKMFKKRQLELYLPKFSIEGSYQLEKVLPSLGISNVFTSHADLSGISNHSNIQVSEMVHKAVVEVDESGTRAAAATGTISTLRKARLNSQRLVFNRPFLMFIVDNNILFLGKVNRP	26.9	430	16	–	–	–	–	–	–
FL α1AT Pitts C232S P2KP1′N (other, E. coli, purified; also called 3.B2; 2.H5) SDPQGDAAQKTDTSHHDQDHPTFNKITPNLAEFAFSLYRQLAHQSNSTNIFFSPVSIATAFAMLSLGTKADTHDEILEGLNFNLTEIPEAQIHEGFQELLRTLNQPDSQLQLTTGNGLFLSEGLKLVDKFLEDVKKLYHSEAFTVNFGDTEEAKKQINDYVEKGTQGKIVDLVKELDRDTVFALVNYIFFKGKWERPFEVKDTEEEDFHVDQVTTVKVPMMKRLGMFNIQHSKKLSSWVLLMKYLGNATAIFFLPDEGKLQHLENELTHDIITKFLENEDRRSASLHLPKLSITGTYDLKSVLGQLGITKVFSNGADLSGVTEEAPLKLSKAVHKAVLTIDEKGTEAAGAMFLEAIKRNIPPEVKFNKPFVFLMIEQNTKSPLFMGKVVNPTQK	–	–	–	37800	15	41.5	910	27.8	2520
FL α1AT Pitts C232S P2TP1′N (other, E. coli, purified; also called 4.G9) SDPQGDAAQKTDTSHHDQDHPTFNKITPNLAEFAFSLYRQLAHQSNSTNIFFSPVSIATAFAMLSLGTKADTHDEILEGLNFNLTEIPEAQIHEGFQELLRTLNQPDSQLQLTTGNGLFLSEGLKLVDKFLEDVKKLYHSEAFTVNFGDTEEAKKQINDYVEKGTQGKIVDLVKELDRDTVFALVNYIFFKGKWERPFEVKDTEEEDFHVDQVTTVKVPMMKRLGMFNIQHSKKLSSWVLLMKYLGNATAIFFLPDEGKLQHLENELTHDIITKFLENEDRRSASLHLPKLSITGTYDLKSVLGQLGITKVFSNGADLSGVTEEAPLKLSKAVHKAVLTIDEKGTEAAGAMFLEAITRNIPPEVKFNKPFVFLMIEQNTKSPLFMGKVVNPTQK	–	–	–	62400	270	–	–	–	231
FL α1AT Pitts C232S P2KP1′H (other, E. coli, purified; also called 1.A12) SDPQGDAAQKTDTSHHDQDHPTFNKITPNLAEFAFSLYRQLAHQSNSTNIFFSPVSIATAFAMLSLGTKADTHDEILEGLNFNLTEIPEAQIHEGFQELLRTLNQPDSQLQLTTGNGLFLSEGLKLVDKFLEDVKKLYHSEAFTVNFGDTEEAKKQINDYVEKGTQGKIVDLVKELDRDTVFALVNYIFFKGKWERPFEVKDTEEEDFHVDQVTTVKVPMMKRLGMFNIQHSKKLSSWVLLMKYLGNATAIFFLPDEGKLQHLENELTHDIITKFLENEDRRSASLHLPKLSITGTYDLKSVLGQLGITKVFSNGADLSGVTEEAPLKLSKAVHKAVLTIDEKGTEAAGAMFLEAIKRHIPPEVKFNKPFVFLMIEQNTKSPLFMGKVVNPTQK	–	–	–	28800	–	46.5	620	27.4	–
FL α1AT Pitts C232S P1′E (other, E. coli, purified; also called P1′.H8; P1′.F10) SDPQGDAAQKTDTSHHDQDHPTFNKITPNLAEFAFSLYRQLAHQSNSTNIFFSPVSIATAFAMLSLGTKADTHDEILEGLNFNLTEIPEAQIHEGFQELLRTLNQPDSQLQLTTGNGLFLSEGLKLVDKFLEDVKKLYHSEAFTVNFGDTEEAKKQINDYVEKGTQGKIVDLVKELDRDTVFALVNYIFFKGKWERPFEVKDTEEEDFHVDQVTTVKVPMMKRLGMFNIQHSKKLSSWVLLMKYLGNATAIFFLPDEGKLQHLENELTHDIITKFLENEDRRSASLHLPKLSITGTYDLKSVLGQLGITKVFSNGADLSGVTEEAPLKLSKAVHKAVLTIDEKGTEAAGAMFLEAIPREIPPEVKFNKPFVFLMIEQNTKSPLFMGKVVNPTQK	–	–	–	2990	150	–	–	–	19.9
FL α1AT Pitts C232S P1′R (other, E. coli, purified; also called P1′.A11) SDPQGDAAQKTDTSHHDQDHPTFNKITPNLAEFAFSLYRQLAHQSNSTNIFFSPVSIATAFAMLSLGTKADTHDEILEGLNFNLTEIPEAQIHEGFQELLRTLNQPDSQLQLTTGNGLFLSEGLKLVDKFLEDVKKLYHSEAFTVNFGDTEEAKKQINDYVEKGTQGKIVDLVKELDRDTVFALVNYIFFKGKWERPFEVKDTEEEDFHVDQVTTVKVPMMKRLGMFNIQHSKKLSSWVLLMKYLGNATAIFFLPDEGKLQHLENELTHDIITKFLENEDRRSASLHLPKLSITGTYDLKSVLGQLGITKVFSNGADLSGVTEEAPLKLSKAVHKAVLTIDEKGTEAAGAMFLEAIPRRIPPEVKFNKPFVFLMIEQNTKSPLFMGKVVNPTQK	–	–	–	132000	680	–	–	–	194

Now from value to binder:

inhibition of APC/thrombin [1] [fold]	second-order rate constant of inhibition [2] [M⁻¹ s⁻¹]	second-order rate constant of inhibition (thrombin [3]) [M⁻¹ s⁻¹]	second-order rate constant of inhibition [4] [M⁻¹ s⁻¹]	second-order rate constant of inhibition (thrombin [5]) [M⁻¹ s⁻¹]	inhibition of APC/fXa [6] [fold]	second-order rate constant of inhibition (fXa) [M⁻¹ s⁻¹]	PT (s), 5 µM serpin (TF:fVIIa) [s]	inhibition of APC/thrombin [7] [fold]	Binder
–	–	–	5700	23	–	–	–	248	FL α1AT Pitts C232S P2TP1′Y (other, E. coli, purified; also called 3.A10) SDPQGDAAQKTDTSHHDQDHPTFNKITPNLAEFAFSLYRQLAHQSNSTNIFFSPVSIATAFAMLSLGTKADTHDEILEGLNFNLTEIPEAQIHEGFQELLRTLNQPDSQLQLTTGNGLFLSEGLKLVDKFLEDVKKLYHSEAFTVNFGDTEEAKKQINDYVEKGTQGKIVDLVKELDRDTVFALVNYIFFKGKWERPFEVKDTEEEDFHVDQVTTVKVPMMKRLGMFNIQHSKKLSSWVLLMKYLGNATAIFFLPDEGKLQHLENELTHDIITKFLENEDRRSASLHLPKLSITGTYDLKSVLGQLGITKVFSNGADLSGVTEEAPLKLSKAVHKAVLTIDEKGTEAAGAMFLEAITRYIPPEVKFNKPFVFLMIEQNTKSPLFMGKVVNPTQK
–	–	–	24600	34	–	–	–	722	FL α1AT Pitts C232S P2RP1′C (other, E. coli, purified; also called 1.B11) SDPQGDAAQKTDTSHHDQDHPTFNKITPNLAEFAFSLYRQLAHQSNSTNIFFSPVSIATAFAMLSLGTKADTHDEILEGLNFNLTEIPEAQIHEGFQELLRTLNQPDSQLQLTTGNGLFLSEGLKLVDKFLEDVKKLYHSEAFTVNFGDTEEAKKQINDYVEKGTQGKIVDLVKELDRDTVFALVNYIFFKGKWERPFEVKDTEEEDFHVDQVTTVKVPMMKRLGMFNIQHSKKLSSWVLLMKYLGNATAIFFLPDEGKLQHLENELTHDIITKFLENEDRRSASLHLPKLSITGTYDLKSVLGQLGITKVFSNGADLSGVTEEAPLKLSKAVHKAVLTIDEKGTEAAGAMFLEAIRRCIPPEVKFNKPFVFLMIEQNTKSPLFMGKVVNPTQK
–	–	–	61100	42	12.8	4790	27.8	1460	FL α1AT Pitts C232S P2R (other, E. coli, purified; also called P2.F10; P2.G8) SDPQGDAAQKTDTSHHDQDHPTFNKITPNLAEFAFSLYRQLAHQSNSTNIFFSPVSIATAFAMLSLGTKADTHDEILEGLNFNLTEIPEAQIHEGFQELLRTLNQPDSQLQLTTGNGLFLSEGLKLVDKFLEDVKKLYHSEAFTVNFGDTEEAKKQINDYVEKGTQGKIVDLVKELDRDTVFALVNYIFFKGKWERPFEVKDTEEEDFHVDQVTTVKVPMMKRLGMFNIQHSKKLSSWVLLMKYLGNATAIFFLPDEGKLQHLENELTHDIITKFLENEDRRSASLHLPKLSITGTYDLKSVLGQLGITKVFSNGADLSGVTEEAPLKLSKAVHKAVLTIDEKGTEAAGAMFLEAIRRSIPPEVKFNKPFVFLMIEQNTKSPLFMGKVVNPTQK
–	–	–	33400	3.8	30.9	1080	27.9	8790	FL α1AT Pitts C232S P2QP1′K (other, E. coli, purified; also called 4.G4) SDPQGDAAQKTDTSHHDQDHPTFNKITPNLAEFAFSLYRQLAHQSNSTNIFFSPVSIATAFAMLSLGTKADTHDEILEGLNFNLTEIPEAQIHEGFQELLRTLNQPDSQLQLTTGNGLFLSEGLKLVDKFLEDVKKLYHSEAFTVNFGDTEEAKKQINDYVEKGTQGKIVDLVKELDRDTVFALVNYIFFKGKWERPFEVKDTEEEDFHVDQVTTVKVPMMKRLGMFNIQHSKKLSSWVLLMKYLGNATAIFFLPDEGKLQHLENELTHDIITKFLENEDRRSASLHLPKLSITGTYDLKSVLGQLGITKVFSNGADLSGVTEEAPLKLSKAVHKAVLTIDEKGTEAAGAMFLEAIQRKIPPEVKFNKPFVFLMIEQNTKSPLFMGKVVNPTQK
